Measured values reported in the RNAGym collection of RNA variant scans (doi:10.7554/elife.90254).

B1: LINE1-mini (parent)
chain: GGCAGAGCUCAACACAGCGUGGCAAAGUGGCUGUGGCUAGACUGCC

Variants of: B1
Test: self-cleavage, relative activity (ratio to wild type); higher = more cleavage; in vitro, sequencing; the parent is a self-cleaving ribozyme

Variant | self-cleavage
GGCAGAGCUCUACACAGCGUGGCAAAGUGUCUGUGGCUAGACUGCC [A11U G30U] | 0.18
GGCAGAGCUCUACACAGCGUGGCAAAGUCGCUGUGGCUAGACUGCC [A11U G29C] | 0.09
GGCAGAGCUCUACACAGCGUGGCAAAGUAGCUGUGGCUAGACUGCC [A11U G29A] | 0.14
GGCAGAGCUCUACACAGCGUGGCAAAGUUGCUGUGGCUAGACUGCC [A11U G29U] | 0.17
GGCAGAGCUCUACACAGCGUGGCAAAGUGGGUGUGGCUAGACUGCC [A11U C31G] | 0.03
GGCAGAGCUCUACACAGCGUGGCAAAGUGGUUGUGGCUAGACUGCC [A11U C31U] | 0.1
GGCAGAGCUCUACACAGCGUGGCAAAGUGGAUGUGGCUAGACUGCC [A11U C31A] | 0.04
GGCAGAGCUCGACACAGCGUGGCAAAGUGGCUGCGGCUAGACUGCC [A11G U34C] | 0.03
GGCAGAGCUCGACACAGCGUGGCAAAGUGGCUGAGGCUAGACUGCC [A11G U34A] | 0.03
GGCAGAGCUCGACACAGCGUGGCAAAGUGGCUGGGGCUAGACUGCC [A11G U34G] | 0.03
GGCAGAGCUCUACACAGCGUGGCAAAGUGGCUGUAGCUAGACUGCC [A11U G35A] | 0.04
GGCAGAGCUCUACACAGCGUGGCAAAGUGGCUGUCGCUAGACUGCC [A11U G35C] | 0.01
GGCAGAGCUCUACACAGCAUGGCAAAGUGGCUGUGGCUAGACUGCC [A11U G19A] | 0.27
GGCAGAGCUCUACACAGCCUGGCAAAGUGGCUGUGGCUAGACUGCC [A11U G19C] | 0.1
GGCAGAGCUCUACACAGCUUGGCAAAGUGGCUGUGGCUAGACUGCC [A11U G19U] | 0.12
GGCAGAGCUCGACACAGCGUGGCAAAGUGGCCGUGGCUAGACUGCC [A11G U32C] | 0.04
GGCAGAGCUCGACACAGCGUGGCAAAGUGGCAGUGGCUAGACUGCC [A11G U32A] | 0.02
GGCAGAGCUCGACACAGCGUGGCAAAGUGGCGGUGGCUAGACUGCC [A11G U32G] | 0.03
GGCAGAGCUCGACACAGCGUGGCAAAGUGGCUGUGGCAAGACUGCC [A11G U38A] | 0.02

Variant | self-cleavage
GGCAGAGCUCGACACAGCGUGGCAAAGUGGCUGUGGCGAGACUGCC [A11G U38G] | 0.02
GGCAGAGCUCGACACAGCGUGGCAAAGUGGCUGUGGCCAGACUGCC [A11G U38C] | 0.03
GGCAGAGCUCUACUCAGCGUGGCAAAGUGGCUGUGGCUAGACUGCC [A11U A14U] | 0.08
GGCAGAGCUCUACGCAGCGUGGCAAAGUGGCUGUGGCUAGACUGCC [A11U A14G] | 0.03
GGCAGAGCUCUACCCAGCGUGGCAAAGUGGCUGUGGCUAGACUGCC [A11U A14C] | 0.01
GGCAGAGCUCGACACAGCGUGGCAAAGUGGCUGUGGCUAGACAGCC [A11G U43A] | 0.01
GGCAGAGCUCGACACAGCGUGGCAAAGUGGCUGUGGCUAGACCGCC [A11G U43C] | 0.02
GGCAGAGCUCGACACAGCGUGGCAAAGUGGCUGUGGCUAGACGGCC [A11G U43G] | 0
GGCAGAGCUCGACACAGCGUGGCAAAGUGGCUAUGGCUAGACUGCC [A11G G33A] | 0.03
GGCAGAGCUCGACACAGCGUGGCAAAGUGGCUCUGGCUAGACUGCC [A11G G33C] | 0.03
GGCAGAGCUCGACACAGCGUGGCAAAGUGGCUUUGGCUAGACUGCC [A11G G33U] | 0.03
GGCAGAGCUCUACACAGCGUGGCAAAGUGGCUGUGGCUAGACUGCU [A11U C46U] | 0.12
GGCAGAGCUCUACACAGCGUGGCAAAGUGGCUGUGGCUAGACUGCG [A11U C46G] | 0.06
GGCAGAGCUCUACACAGCGUGGCAAAGUGGCUGUGGCUAGACUGCA [A11U C46A] | 0.09
GGCAGAGCUCUACAGAGCGUGGCAAAGUGGCUGUGGCUAGACUGCC [A11U C15G] | 0.02
GGCAGAGCUCUACAAAGCGUGGCAAAGUGGCUGUGGCUAGACUGCC [A11U C15A] | 0.03
GGCAGAGCUCUACAUAGCGUGGCAAAGUGGCUGUGGCUAGACUGCC [A11U C15U] | 0.17
GGCAGAGCUCUACACAGGGUGGCAAAGUGGCUGUGGCUAGACUGCC [A11U C18G] | 0.04
GGCAGAGCUCUACACAGAGUGGCAAAGUGGCUGUGGCUAGACUGCC [A11U C18A] | 0.07

Variant | self-cleavage
GGCAGAGCUCUACACAGUGUGGCAAAGUGGCUGUGGCUAGACUGCC [A11U C18U] | 0.32
GGCAGAGCUCUACACAGCGUAGCAAAGUGGCUGUGGCUAGACUGCC [A11U G21A] | 0.33
GGCAGAGCUCUACACAGCGUUGCAAAGUGGCUGUGGCUAGACUGCC [A11U G21U] | 0.1
GGCAGAGCUCUACACAGCGUCGCAAAGUGGCUGUGGCUAGACUGCC [A11U G21C] | 0.12
GGCAGAGCUCGACACAGCGUGGCAAAGUGUCUGUGGCUAGACUGCC [A11G G30U] | 0.04
GGCAGAGCUCUACACAGCGUGUCAAAGUGGCUGUGGCUAGACUGCC [A11U G22U] | 0.15
GGCAGAGCUCUACACAGCGUGCCAAAGUGGCUGUGGCUAGACUGCC [A11U G22C] | 0.07
GGCAGAGCUCUACACAGCGUGACAAAGUGGCUGUGGCUAGACUGCC [A11U G22A] | 0.34
GGCAGAGCUCUACACAGCGUGGCAAAGUGGCUGUGGCUAGAGUGCC [A11U C42G] | 0.02
GGCAGAGCUCUACACAGCGUGGCAAAGUGGCUGUGGCUAGAAUGCC [A11U C42A] | 0.03
GGCAGAGCUCUACACAGCGUGGCAAAGUGGCUGUGGCUAGAUUGCC [A11U C42U] | 0.02
GGCAGAGCUCGACACAGCGUGGCAAAGUGGCUGUGCCUAGACUGCC [A11G G36C] | 0.01
GGCAGAGCUCGACACAGCGUGGCAAAGUGGCUGUGACUAGACUGCC [A11G G36A] | 0.02
GGCAGAGCUCGACACAGCGUGGCAAAGUGGCUGUGUCUAGACUGCC [A11G G36U] | 0.02
GGCAGAGCUCUACACAGCGUGGCAAAGUGGCUGUGGCUAGACUGCC [A11U] | 0.15
GGCAGAGCUCUACACAGCGUGGCAAGGUGGCUGUGGCUAGACUGCC [A11U A26G] | 0.13
GGCAGAGCUCUACACAGCGUGGCAAUGUGGCUGUGGCUAGACUGCC [A11U A26U] | 0.12
GGCAGAGCUCUACACAGCGUGGCAACGUGGCUGUGGCUAGACUGCC [A11U A26C] | 0.16
